Key:
VEGFR2 (dimer) = VEGFR2 (dimer) (Homo sapiens, UniProt P35968); test: global fit
VEGFR2 (monomer) = VEGFR2 (monomer) (Homo sapiens, UniProt P35968); test: global fit
Chain of VEGFR2 (monomer) (P35968 20-1356): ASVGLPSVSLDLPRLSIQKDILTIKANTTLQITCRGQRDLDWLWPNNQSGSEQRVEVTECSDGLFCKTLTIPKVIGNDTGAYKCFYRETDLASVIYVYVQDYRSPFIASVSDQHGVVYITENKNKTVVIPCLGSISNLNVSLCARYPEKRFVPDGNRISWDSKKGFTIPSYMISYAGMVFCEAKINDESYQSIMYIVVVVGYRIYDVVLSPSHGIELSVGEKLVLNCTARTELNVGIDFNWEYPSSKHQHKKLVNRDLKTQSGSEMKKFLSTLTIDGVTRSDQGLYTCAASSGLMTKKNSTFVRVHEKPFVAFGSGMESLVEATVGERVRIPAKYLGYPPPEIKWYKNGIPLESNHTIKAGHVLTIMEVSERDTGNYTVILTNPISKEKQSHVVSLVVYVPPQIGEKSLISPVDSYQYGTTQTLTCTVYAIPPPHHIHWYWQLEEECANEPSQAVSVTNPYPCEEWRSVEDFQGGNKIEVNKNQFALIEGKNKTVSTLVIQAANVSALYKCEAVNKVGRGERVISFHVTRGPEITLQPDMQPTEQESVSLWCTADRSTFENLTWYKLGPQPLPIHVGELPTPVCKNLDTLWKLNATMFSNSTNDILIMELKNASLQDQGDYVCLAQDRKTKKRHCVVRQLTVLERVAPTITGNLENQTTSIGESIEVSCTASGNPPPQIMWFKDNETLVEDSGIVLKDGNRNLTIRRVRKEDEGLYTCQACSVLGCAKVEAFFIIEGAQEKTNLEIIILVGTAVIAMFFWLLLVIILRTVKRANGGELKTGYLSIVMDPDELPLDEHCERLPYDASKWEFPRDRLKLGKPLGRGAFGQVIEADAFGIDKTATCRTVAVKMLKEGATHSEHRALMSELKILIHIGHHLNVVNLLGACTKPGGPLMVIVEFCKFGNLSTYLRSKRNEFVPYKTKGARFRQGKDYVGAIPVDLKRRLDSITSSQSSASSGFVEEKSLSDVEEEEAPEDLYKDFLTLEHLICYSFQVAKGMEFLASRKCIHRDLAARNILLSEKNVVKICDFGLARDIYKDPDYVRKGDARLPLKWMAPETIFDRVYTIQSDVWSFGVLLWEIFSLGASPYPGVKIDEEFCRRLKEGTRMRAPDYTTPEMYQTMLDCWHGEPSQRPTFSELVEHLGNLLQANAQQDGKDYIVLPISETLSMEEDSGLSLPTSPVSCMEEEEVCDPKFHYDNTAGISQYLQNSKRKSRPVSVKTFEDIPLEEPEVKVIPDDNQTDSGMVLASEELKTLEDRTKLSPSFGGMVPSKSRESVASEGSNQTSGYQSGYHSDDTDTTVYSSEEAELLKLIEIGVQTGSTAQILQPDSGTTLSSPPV

Chain of VEGFR2 (dimer) (P35968 20-1356): as above

B1: VEGF (protein)
chain: MTDRQTDTAPSPSYHLLPGRRRTVDAAASRGQGPEPAPGGGVEGVGARGVALKLFVQLLGCSRFGGAVVRAGEAEPSGAARSASSGREEPQPEEGEEEEEKEEERGPQWRLGARKPGSWTGEAAVCADSAPAARAPQALARASGRGGRVARRGAEESGPPHSPSRRGSASRAGPGRASETMNFLLSWVHWSLALLLYLHHAKWSQAAPMAEGGGQNHHEVVKFMDVYQRSYCHPIETLVDIFQEYPDEIEYIFKPSCVPLMRCGGCCNDEGLECVPTEESNITMQIMRIKPHQGQHIGEMSFLQHNKCECRPKKDRARQEKKSVRGKGKGQKRKRKKSRYKSWSVPCGPCSERRKHLFVQDPQTCKCSCKNTDSRCKARQLELNERTCRCDKPRR
Q: B1 was tested. Which Kd (VEGFR2 (dimer)) did it give?
A: The Kd was 0.23 nM.

Q: And the Kd (VEGFR2 (monomer))?
A: Its Kd is 10 nM.

From publication PMC6898792 (2019)
